Results from doi:10.1101/2022.05.27.493400.
Values joined by “and” are separate entries in the source; they are usually repeats but may differ in a detail not shown here. Identical values can stand only once.

Target: SARS-CoV-2 spike protein, extraviral domain (aa 1-1213) (SARS-CoV-2) (UniProt P0DTC2)
Assay: SPR

pineapple-derived jacalin-related lectin AcmJRL (natural protein)
KD of a single replicate, from Langmuir isotherm: 7.9 µM and 11.5 µM and 14 µM | KD of a single replicate, from rate constants: 3.1 µM and 4 µM and 2.7 µM | Kd: 3.27 µM and 11.1 µM | koff: 0.00342 s⁻¹ | kon: 1060 M⁻¹ s⁻¹
